Test results as given in patent US20140057857A1 (RESEARCH FOUNDATION FOR THE STATE UNIVERSITY OF NEW YORK, published 2014).
Numbered stars: 1 amine (or outer) side, 2 acyl side, 3 side chain; on linkers, the order of the positions; unused ones are H or OH. Bridge positions count the residues as written; N and C are the ends. Square brackets hold non-standard residues; d marks the D form. Ends that are not written are not given here. CH2(3,3'-bipyridine-6,6')CH2 = c1cc(C[*:1])ncc1-c1ccc(C[*:2])nc1; Biphenyl(4,4'-CH2)2 = c1cc(-c2ccc(C[*:2])cc2)ccc1C[*:1]

T1: GST-MDMX containing full-length human MDMX (human, UniProt O15151 1-490)
T1 construct: mature; MDMX', expressed in E. coli as a GST fusion; 'mature' stands for full-length; not shown: GST tag
T1 sequence (looked up): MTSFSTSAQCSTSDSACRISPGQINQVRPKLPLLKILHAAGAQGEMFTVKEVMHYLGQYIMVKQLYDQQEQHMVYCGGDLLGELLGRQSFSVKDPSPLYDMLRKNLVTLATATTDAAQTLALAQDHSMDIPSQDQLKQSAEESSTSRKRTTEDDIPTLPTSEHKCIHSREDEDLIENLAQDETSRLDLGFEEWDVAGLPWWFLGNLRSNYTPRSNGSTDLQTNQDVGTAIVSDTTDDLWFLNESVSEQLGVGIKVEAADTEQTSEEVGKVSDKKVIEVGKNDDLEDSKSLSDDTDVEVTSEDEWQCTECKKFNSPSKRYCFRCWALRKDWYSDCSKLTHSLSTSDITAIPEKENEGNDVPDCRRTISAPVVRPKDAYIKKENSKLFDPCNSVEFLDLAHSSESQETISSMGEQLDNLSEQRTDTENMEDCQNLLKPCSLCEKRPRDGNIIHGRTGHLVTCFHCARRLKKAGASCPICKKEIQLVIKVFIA

B1: Cross-linked Noxa peptide 5b (Bpy, L,L-cysteines at 77/84) (peptide)
peptide: AAXLRRIGDXVNLRQKLLN
modifications: Cys 3 and Cys 10 of the peptide (NoxaB 77 and 84) cross-linked by Bpy; N-terminal acetyl; C-terminal amide
B2: PDI analog 2a (Bph cross-linked, two arginines) (peptide)
peptide: Ac-LTFCRYWARLCS-NH2
modifications: linker 4-11 via Biphenyl(4,4'-CH2)2
notes: Printed as LTFC'RYWARLC'S
B3: PDI analog 3 (linear (D,L)-dicysteine peptide) (peptide)
peptide: LTF[dC]HYWAQLCS-NH2
modifications: not fully specified (N-terminus); printed as LTFcHYWAQLCS; cysteine pairing not given here
notes: not cross-linked; also called peptide 3
B4: PDI analog 3a (Bph cross-linked D,L-dicysteine peptide) (peptide)
peptide: Ac-LTF[dC]HYWAQLCS-NH2
modifications: linker 4-11 via Biphenyl(4,4'-CH2)2
SMILES: CC(=O)N[C@@H](CC(C)C)C(=O)N[C@H](C(=O)N[C@@H](Cc1ccccc1)C(=O)N[C@@H]1CSCc2ccc(cc2)-c2ccc(cc2)CSC[C@@H](C(=O)N[C@@H](CO)C(N)=O)NC(=O)[C@H](CC(C)C)NC(=O)[C@H](CCC(N)=O)NC(=O)[C@H](C)NC(=O)[C@H](Cc2c[nH]c3ccccc23)NC(=O)[C@H](Cc2ccc(O)cc2)NC(=O)[C@H](Cc2c[nH]cn2)NC1=O)[C@@H](C)O
notes: Printed as LTFc'HYWAQLC'S
B5: PDI analog 3b (Bpy cross-linked D,L-dicysteine peptide) (peptide)
peptide: Ac-LTF[dC]HYWAQLCS-NH2
modifications: linker 4-11 via CH2(3,3'-bipyridine-6,6')CH2
SMILES: CC(=O)N[C@@H](CC(C)C)C(=O)N[C@H](C(=O)N[C@@H](Cc1ccccc1)C(=O)N[C@@H]1CSCc2ccc(cn2)-c2ccc(nc2)CSC[C@@H](C(=O)N[C@@H](CO)C(N)=O)NC(=O)[C@H](CC(C)C)NC(=O)[C@H](CCC(N)=O)NC(=O)[C@H](C)NC(=O)[C@H](Cc2c[nH]c3ccccc23)NC(=O)[C@H](Cc2ccc(O)cc2)NC(=O)[C@H](Cc2c[nH]cn2)NC1=O)[C@@H](C)O
notes: Printed as LTFc"HYWAQLC"S
B6: PDI analog 4a (Bph cross-linked D,L-dicysteine peptide, two arginines) (peptide)
peptide: Ac-LTF[dC]RYWARLCS-NH2
modifications: linker 4-11 via Biphenyl(4,4'-CH2)2
notes: Printed as LTFc'RYWARLC'S
B7: PDI analog 1 (linear L,L-dicysteine peptide) (peptide)
peptide: Ac-LTFCHYWAQLCS-NH2
modifications: cysteine pairing not given here
notes: not cross-linked; also called peptide 1
B8: PDI analog 1a (Bph cross-linked L,L-dicysteine peptide) (peptide)
peptide: Ac-LTFCHYWAQLCS-NH2
modifications: linker 4-11 via Biphenyl(4,4'-CH2)2
notes: Printed as LTFC'HYWAQLC'S (C' = Bph-linked cysteine)
B9: PDI analog 1b (Bpy cross-linked L,L-dicysteine peptide) (peptide)
peptide: Ac-LTFCHYWAQLCS-NH2
modifications: linker 4-11 via CH2(3,3'-bipyridine-6,6')CH2
SMILES: CC(=O)N[C@@H](CC(C)C)C(=O)N[C@H](C(=O)N[C@@H](Cc1ccccc1)C(=O)N[C@H]1CSCc2ccc(cn2)-c2ccc(nc2)CSC[C@@H](C(=O)N[C@@H](CO)C(N)=O)NC(=O)[C@H](CC(C)C)NC(=O)[C@H](CCC(N)=O)NC(=O)[C@H](C)NC(=O)[C@H](Cc2c[nH]c3ccccc23)NC(=O)[C@H](Cc2ccc(O)cc2)NC(=O)[C@H](Cc2c[nH]cn2)NC1=O)[C@@H](C)O
notes: Printed as LTFC"HYWAQLC"S (C" = Bpy-linked cysteine)
B10: Cross-linked Noxa peptide 5a (Bph, L,L-cysteines at 77/84) (peptide)
peptide: AAXLRRIGDXVNLRQKLLN
modifications: Cys 3 and Cys 10 of the peptide (NoxaB 77 and 84) cross-linked by Bph; N-terminal acetyl; C-terminal amide
B11: Cross-linked Noxa peptide 6a (Bph, D-Cys 77 / L-Cys 84) (peptide)
peptide: AAXLRRIGDXVNLRQKLLN
modifications: D-cysteine at position 3; D-Cys 3 and L-Cys 10 cross-linked by Bph; N-terminal acetyl; C-terminal amide
B12: Cross-linked Noxa peptide 6b (Bpy, D-Cys 77 / L-Cys 84) (peptide)
peptide: AAXLRRIGDXVNLRQKLLN
modifications: D-cysteine at position 3; D-Cys 3 and L-Cys 10 cross-linked by Bpy; N-terminal acetyl; C-terminal amide
B13: Cross-linked Noxa peptide 7a (Bph, L,L-cysteines at 80/87) (peptide)
peptide: Ac-AAQLRCIGDKVNCRQKLLN-NH2
modifications: linker 6-13 via Biphenyl(4,4'-CH2)2
SMILES: CC[C@H](C)[C@@H]1NC(=O)[C@@H](NC(=O)[C@H](CCCNC(=N)N)NC(=O)[C@H](CC(C)C)NC(=O)[C@H](CCC(N)=O)NC(=O)[C@H](C)NC(=O)[C@H](C)NC(C)=O)CSCc2ccc(cc2)-c2ccc(cc2)CSC[C@@H](C(=O)N[C@@H](CCCNC(=N)N)C(=O)N[C@@H](CCC(N)=O)C(=O)N[C@@H](CCCCN)C(=O)N[C@@H](CC(C)C)C(=O)N[C@@H](CC(C)C)C(=O)N[C@@H](CC(N)=O)C(N)=O)NC(=O)[C@H](CC(N)=O)NC(=O)[C@H](C(C)C)NC(=O)[C@H](CCCCN)NC(=O)[C@H](CC(=O)O)NC(=O)CNC1=O
notes: Printed as AAQLRC'IGDKVNC'RQKLLN
B14: Fluorescein-labeled cross-linked Noxa peptide 5a (peptide)
peptide: AAXLRRIGDXVNLRQKLLN
modifications: N-terminal FITC-Ahx; Cys 3 and Cys 10 cross-linked by Bph; C-terminal amide
notes: also called Fl-5a; Fluo-5a
B15: Fluorescein-labeled cross-linked Noxa peptide 6a (peptide)
peptide: AAXLRRIGDXVNLRQKLLN
modifications: N-terminal FITC-Ahx; D-cysteine at position 3; D-Cys 3 and L-Cys 10 cross-linked by Bph; C-terminal amide
notes: also called Fl-6a; Fluo-6a
B16: PDI analog 2b (Bpy cross-linked, two arginines) (peptide)
peptide: Ac-LTFCRYWARLCS-NH2
modifications: linker 4-11 via CH2(3,3'-bipyridine-6,6')CH2
SMILES: CC(=O)N[C@@H](CC(C)C)C(=O)N[C@H](C(=O)N[C@@H](Cc1ccccc1)C(=O)N[C@H]1CSCc2ccc(cn2)-c2ccc(nc2)CSC[C@@H](C(=O)N[C@@H](CO)C(N)=O)NC(=O)[C@H](CC(C)C)NC(=O)[C@H](CCCNC(=N)N)NC(=O)[C@H](C)NC(=O)[C@H](Cc2c[nH]c3ccccc23)NC(=O)[C@H](Cc2ccc(O)cc2)NC(=O)[C@H](CCCNC(=N)N)NC1=O)[C@@H](C)O
notes: Printed as LTFC"RYWARLC"S
B17: PDI analog 4b (Bpy cross-linked D,L-dicysteine peptide, two arginines) (peptide)
peptide: Ac-LTF[dC]RYWARLCS-NH2
modifications: linker 4-11 via CH2(3,3'-bipyridine-6,6')CH2
SMILES: CC(=O)N[C@@H](CC(C)C)C(=O)N[C@H](C(=O)N[C@@H](Cc1ccccc1)C(=O)N[C@@H]1CSCc2ccc(cn2)-c2ccc(nc2)CSC[C@@H](C(=O)N[C@@H](CO)C(N)=O)NC(=O)[C@H](CC(C)C)NC(=O)[C@H](CCCNC(=N)N)NC(=O)[C@H](C)NC(=O)[C@H](Cc2c[nH]c3ccccc23)NC(=O)[C@H](Cc2ccc(O)cc2)NC(=O)[C@H](CCCNC(=N)N)NC1=O)[C@@H](C)O
notes: Printed as LTFc"RYWARLC"S
B18: Cross-linked Noxa peptide 8a (Bph, alpha-methyl-L-cysteines at 77/84) (peptide)
peptide: AAXLRRIGDXVNLRQKLLN
modifications: alpha-methyl-L-cysteine at positions 3 and 10, cross-linked by Bph; N-terminal acetyl; C-terminal amide

What follows are binders tested against GST-Mcl-1 (assay: ELISA; the upper end is tied to 5b by Table 3 (25 nM against 340 nM)).
GST-Mcl-1, sequence (Q07820 whole entry): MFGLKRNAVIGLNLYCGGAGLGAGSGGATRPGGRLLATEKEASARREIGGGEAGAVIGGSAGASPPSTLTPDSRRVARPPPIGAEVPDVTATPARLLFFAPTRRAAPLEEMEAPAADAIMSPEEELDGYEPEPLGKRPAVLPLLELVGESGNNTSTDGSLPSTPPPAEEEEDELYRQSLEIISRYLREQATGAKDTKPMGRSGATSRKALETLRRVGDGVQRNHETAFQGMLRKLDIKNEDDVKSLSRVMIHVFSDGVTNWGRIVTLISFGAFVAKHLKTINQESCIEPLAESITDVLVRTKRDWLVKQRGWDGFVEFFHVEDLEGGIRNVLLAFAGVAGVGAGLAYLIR

Row | Binder | fold improvement over the parent peptide
1 | B1 | 14 fold

Each binder was assayed against T2, GST-MDM2 containing full-length human MDM2 (human, UniProt Q00987 1-491) (assay: competition ELISA: peptide inhibits GST-MDM2 binding to coated His6-p53).
T2 construct: mature; 'mature' stands for full-length; not shown: GST tag
T2 sequence (Q00987 whole entry): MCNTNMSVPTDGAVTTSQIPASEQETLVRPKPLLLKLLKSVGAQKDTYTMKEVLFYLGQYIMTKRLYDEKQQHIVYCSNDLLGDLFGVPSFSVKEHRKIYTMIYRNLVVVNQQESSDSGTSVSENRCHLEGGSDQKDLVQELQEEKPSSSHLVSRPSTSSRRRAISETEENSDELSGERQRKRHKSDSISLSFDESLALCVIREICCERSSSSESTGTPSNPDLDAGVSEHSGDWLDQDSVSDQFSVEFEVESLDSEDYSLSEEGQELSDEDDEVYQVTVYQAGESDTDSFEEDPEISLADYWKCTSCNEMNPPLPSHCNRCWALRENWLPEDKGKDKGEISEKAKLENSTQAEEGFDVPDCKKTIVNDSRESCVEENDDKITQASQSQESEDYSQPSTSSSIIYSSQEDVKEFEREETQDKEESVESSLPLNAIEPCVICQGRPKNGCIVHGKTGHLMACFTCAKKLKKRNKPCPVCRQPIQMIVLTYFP

Row | Binder | IC50
2 | B2 | 244 nM
3 | B3 | 13 nM
4 | B4 | 8.3 nM
5 | B5 | 5.4 nM
6 | B6 | 208 nM
7 | B7 | 57 nM
8 | B8 | 39 nM
9 | B9 | 35 nM

These binders were tested against GST-Mcl-1 (assay: ELISA (format not described; target taken to be Mcl-1)).

Row | Binder | IC50
10 | B10 | 75 nM
11 | B1 | 25 nM
12 | B11 | 260 nM
13 | B12 | 140 nM
14 | B13 | 37 nM

These binders were tested against GST-Bcl-xL (assay: fluorescence polarization assay, labeled peptide on GST-Bcl-xL).
GST-Bcl-xL, sequence (Q07817 whole entry): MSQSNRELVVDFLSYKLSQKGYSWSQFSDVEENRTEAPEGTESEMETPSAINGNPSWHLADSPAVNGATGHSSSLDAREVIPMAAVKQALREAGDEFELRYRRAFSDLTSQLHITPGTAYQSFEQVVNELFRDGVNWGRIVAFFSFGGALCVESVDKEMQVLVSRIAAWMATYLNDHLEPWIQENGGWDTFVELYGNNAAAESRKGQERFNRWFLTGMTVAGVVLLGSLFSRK

Row | Binder | Kd
15 | B14 | > 2000 nM
16 | B15 | > 2000 nM

The binders below were run against T2, GST-MDM2 containing full-length human … (assay: competition ELISA; reference not named in the sentence (peptide 1 or PDI)).

Row | Binder | fold increase in MDM2 activity
17 | B3 | > 3 fold

What follows are binders tested against GST-Mcl-1 (assay: fluorescence polarization assay, Mcl-1 against Bcl-xL).

Row | Binder | fold selectivity for Mcl-1 over Bcl-xL
18 | B14 | > 2000 fold
19 | B15 | > 2000 fold

Each binder was assayed against T1, GST-MDMX containing full-length human … (assay: competition ELISA: peptide inhibits GST-MDMX binding to coated His6-p53).

Row | Binder | IC50
20 | B2 | 5520 nM
21 | B16 | 1520 nM
22 | B3 | 339 nM
23 | B4 | 22 nM
24 | B5 | 14 nM
25 | B6 | 4490 nM
26 | B17 | 1150 nM
27 | B7 | 1850 nM
28 | B8 | 4810 nM
29 | B9 | 890 nM

What follows are binders tested against GST-Mcl-1 (assay: competitive FP assay, against the parent linear peptide).

Row | Binder | fold increase in activity
30 | B10 | 67 fold
31 | B11 | 37 fold

Each binder was assayed against T1, GST-MDMX containing full-length human … (assay: competition ELISA, against linear peptide 3).

Row | Binder | fold increase in MDMX activity
32 | B4 | 15 fold
33 | B5 | 24 fold

Each binder was assayed against GST-Mcl-1 (assay: competitive FP assay: displacement of fluorescein-labeled Bak from GST-Mcl-1).

Row | Binder | IC50
34 | B10 | 18 nM
35 | B1 | 45 nM
36 | B11 | 73 nM
37 | B12 | 140 nM
38 | B13 | 32 nM
39 | B18 | 230 nM

The binders below were run against GST-Mcl-1 (assay: fluorescence polarization assay, labeled peptide on GST-Mcl-1).

Row | Binder | Kd
40 | B14 | 0.8 nM
41 | B15 | 0.7 nM
